Assays:
[1] = test system: cytoplasmic condensates (SINCs); assay: Confocal imaging of localization and condensate (body) formation of GFP-fused NPR proteins and variants; format: cell-based, Nicotiana benthamiana; conditions: for SA-induced cytoplasmic body/condensate (SINC) formation: 5 mM SA for 2 hr
Method: (§1) Plant transformation: For plant transformations, the Agrobacterium tumefaciens strain GV3101 was transformed with plant binary vectors carrying the indicated transgenes. For stable expression in Arabidopsis, a floral dipping method was used. For transient expression in N benthamiana, the Agrobacterium carrying the indicated construct was cultured overnight at 28° C. in Luria-Bertani (LB) broth medium supplemented with appropriate antibiotics: spectinomycin (100 μg/ml), kanamycin (50 μg/ml), gentamycin (50 μg/ml), and rifampicin (25 μg/ml). The obtained culture was re-inoculated at 1:10 into fresh growth media with antibiotics and grown for another 4 hr. Cells were then spun down at 1,600 g for 10 min, and inoculum was prepared by resuspending cells to OD600 nm=1 in double distilled water (DDW) containing 200 μM acetosyringone (Sigma). Unless otherwise stated, for co-IP, co-localization, and BiFC assays in N. benthamiana, the proteins were co-expressed at 1:1 mixture of the relevant Agrobacteria inoculums. In all BiFC assays, the pair of YN/YC fusions was co-expressed together with free mCherry to mark the cytoplasm and nucleus, mCherry-NLS to mark the nucleus only, or mCherry-fused test proteins for co-localization analysis. The inoculum was pressure infiltrated into N. benthamiana leaves at the abaxial side using 1 ml syringe without the needle. Due to low overall levels of NPR1-GFP in transgenic plants, a transient expression assay in Arabidopsis seedlings was used to monitor NPR1-GFP subcellular localization after SA treatment (FIG. 2B). To limit the imaging time in this transient assay (2 hours), a higher baseline SA concentration had to be used. Seeds of WT (Col-0) Arabidopsis were germinated on solid half-strength Murashige and Skoog (1/2 MS) medium and grown for 4 days. Agrobacterium carrying the indicated constructs was grown overnight in LB medium supplemented with appropriate antibiotics. The obtained culture was re-inoculated at 1:10 into virulence induction medium [50.78 mM MES, 0.5% Glucose, 1.734 mM NaH2PO4, 5% of 20X-AB mix (373.9 mM NH4C1, 24.34 mM MgSO4, 40.23 mM KCl, 1.36 mM CaCl2 and 0.18 mM FeSO4·7H2O), 200 μM acetosyringone] supplemented with 25 μg/ml rifampicin and grown for another 24 hr at 28° C. to OD600=0.8 (inoculum). Seedlings were vacuum-infiltrated with the inoculum, and at 48 hpi (hours post inoculation), treatments were performed by submerging the transformed seedlings in water or SA solution at indicated concentrations for 2 hr. Entire cotyledons were sampled for microscopy.
Confocal laser scanning microscopy. Unless otherwise indicated, all imaging data and micrographs for single protein imaging, co-localizations, BiFC and time-lapse were obtained from the transient expression in N. benthamiana using the relevant Agrobacteria strains. All imaging was done with confocal laser scanning fluorescence microscopy using Zeiss 880 airyscan inverted confocal microscope with a 40×/1.2 water correction objective. GFP (eGFP) was excited with a 488 nm argon laser and emission was collected with a 505-530 nm band pass filter. YFP was excited with an argon laser using a 514 nm beam splitter, and emission was detected with a 520-555 nm band pass filter. mCherry was excited with a 561 nm diode laser, and emission was detected with a 575-615 nm band pass filter. When eGFP/YFP were imaged together with mCherry, a spectral GASP detector was used to collect emission from eGFP/YFP. Propidium iodide (PI) was excited with 488 nm argon laser and emission was detected with a 590-620 nm band pass filter. Time-lapse imaging was carried out on live leaf tissue samples from N. benthamiana plants transiently expressing the protein of interest. Image acquisition was done in 5 min intervals for the duration of 2 hr by scanning 30 consecutive focal planes along the Z-axis covering the entire thickness of an epidermal cell. Z-projection was done to each time frame stack before composing a final time-lapse file. […]

CUL3 = assay: Co-IP of Myc-CUL3 with HA-fused NPR1 or variants; format: binding, Arabidopsis thaliana
Method: as §1
Protein analysis and IP. Recombinant protein analysis was performed using transient expression in N. benthamiana, or stable over-expression in transgenic Arabidopsis, or expression in E. coli. Total protein extraction from plants was performed by homogenizing leaf tissue in the plant extraction buffer [50 mM Tris-HCl (pH 7.5), 150 mM NaCl, 5 mM EDTA, 0.2% Triton X-100, 0.2% Nonidet P-40] supplemented with 1 mM PMSF, 100 μM MG132, and EDTA-free protease inhibitor cocktail (Roche). For ubiquitinated protein analysis in plants, 100 μM of DUB (deubiquitinase) inhibitor (LifeSensors) and 10 mM NEM were added. Next, the lysates were cleared by centrifugation at 14,000 rpm for 15 min followed by filtering through a 0.2 μm filter. […] Pull-downs or IP experiments were done on total protein extracts by incubating protein samples in the lysis buffer overnight with indicated affinity tag or antibody conjugated to agarose or magnetic beads: GFP-trap agarose beads (Chromotek) for GFP fusions; RFP-trap agarose beads (Chromotek) for mCherry fusions; anti-HA magnetic beads (ThermoFisher) for HA tag fusions; anti-DYKDDDDK coupled magnetic agarose (ThermoFisher) for FLAG tag fusions; and glutathione magnetic agarose (ThermoFisher) for GST fusions. Unless otherwise indicated, after pull-down/IP, beads were washed 3 times and proteins were eluted by boiling in the 2×SDS sample buffer. […]

B1: NPR6: development-associated NPR1 paralog AtNPR6 (AT3G57130) (protein, UniProt Q9M1I7 1-467, looked up)
Regulatory protein NPR6: MSNTFEESLKSMSLDYLNLLINGQAFSDVTFSVEGRLVHAHRCILAARSLFFRKFFCESDPSQPGAEPANQTGSGARAAAVGGVIPVNSVGYEVFLLLLQFLYSGQVSIVPHKHEPRSNCGDRGCWHTHCTAAVDLSLDILAAARYFGVEQLALLTQKHLTSMVEKASIEDVMKVLIASRKQDMHQLWTTCSYLIAKSGLPQEILAKHLPIELVAKIEELRLKSSMPLRSLMPHHHDLTSTLDLEDQKIRRMRRALDSSDVELVKLMVMGEGLNLDESLALIYAVENCSREVVKALLELGAADVNYPAGPTGKTALHIAAEMVSPDMVAVLLDHHADPNVQTVDGITPLDILRTLTSDFLFKGAIPGLTHIEPNKLRLCLELVQSAALVISREEGNNNSNDNNTMIYPRMKDEHTSGSSLDSRLVYLNLGATNRDIGDDNSNQREGMNLHHHHHDPSTMYHHHHHHF
condensate formation in the absence of SA (constitutive) ([1]; no SA treatment / mock): constitutive bodies

B2: BTB: BTB domain of NPR1 corresponding to amino acids 65-144 of SEQ ID NO: 1 (protein, listed as Arabidopsis thaliana)
chain: SDAKLVLSDGREVSFHRCVLSARSSFFKSALAAAKKEKDSNNTAAVKLELKEIAKDYEVGFDSVVTVLAYVYSSRVRPPP
CUL3 pull-down in co-IP in the absence of SA (CUL3; absence of SA): sufficient to strongly pulldown CUL3 even in the absence of SA

B3: CTD: C-terminal domain (CTD) of NPR1 (protein)
chain: ALMIAKQATMAVECNNIPEQCKHSLKGRLCVEILEQEDKREQIPRDVPPSFAVAADELKMTLLDLENRVALAQRLFPTEAQAAMEIAEMKGTCEFIVTSLEPDRLTGTKRTSPGVKIAPFRILEEHQSRLKALSKTVELGKRFFPRCSAVLDQIMNCEDLTQLACGEDDTAEKRLQKKQRYMEIQETLKKAFSEDNLELGNSSLTDSTSSTSKSTGGKRSNRKLSHRRR
modifications: left off: large carriers
notes: C-terminal domain (CTD) of NPR1
competition with CUL3 for interaction with BTB (CUL3; Myc-CUL3, BTB-HA and CTD-GFP co-expressed): outcompeted CUL3 for interaction with BTB

B4: nls: NPR1 point mutant with enhanced cytoplasmic localization, blocking nuclear function (protein)
chain: MDTTIDGFADSYEISSTSFVATDNTDSSIVYLAAEQVLTGPDVSALQLLSNSFESVFDSPDDFYSDAKLVLSDGREVSFHRCVLSARSSFFKSALAAAKKEKDSNNTAAVKLELKEIAKDYEVGFDSVVTVLAYVYSSRVRPPPKGVSECADENCCHVACRPAVDFMLEVLYLAFIFKIPELITLYQRHLLDVVDKVVIEDTLVILKLANICGKACMKLLDRCKEIIVKSNVDMVSLEKSLPEELVKEIIDRRKELGLEVPKVKKHVSNVHKALDSDDIELVKLLLKEDHTNLDDACALHFAVAYCNVKTATDLLKLDLADVNHRNPRGYTVLHVAAMRKEPQLILSLLEKGASASEATLEGRTALMIAKQATMAVECNNIPEQCKHSLKGRLCVEILEQEDKREQIPRDVPPSFAVAADELKMTLLDLENRVALAQRLFPTEAQAAMEIAEMKGTCEFIVTSLEPDRLTGTKRTSPGVKIAPFRILEEHQSRLKALSKTVELGKRFFPRCSAVLDQIMNCEDLTQLACGEDDTAEKRLQQQQGYMEIQETLQQAFSEDNLELGNSSLTDSTSSTSKSTGGKRSNRKLSHRRR
modifications: left off: small tags and cut ends
CUL3 pull-down signal in co-IP (CUL3; 1 mM SA for 5 hr): significantly stronger CUL3 pull-down signals

B5: NPR2: Arabidopsis NPR1 paralog AtNPR2 (AT4G26120) (protein, UniProt Q9SZI3 1-600, looked up)
Regulatory protein NPR2: MATTTTTTTARFSDSYEFSNTSGNSFFAAESSLDYPTEFLTPPEVSALKLLSNCLESVFDSPETFYSDAKLVLAGGREVSFHRCILSARIPVFKSALATVKEQKSSTTVKLQLKEIARDYEVGFDSVVAVLAYVYSGRVRSPPKGASACVDDDCCHVACRSKVDFMVEVLYLSFVFQIQELVTLYERQFLEIVDKVVVEDILVIFKLDTLCGTTYKKLLDRCIEIIVKSDIELVSLEKSLPQHIFKQIIDIREALCLEPPKLERHVKNIYKALDSDDVELVKMLLLEGHTNLDEAYALHFAIAHCAVKTAYDLLELELADVNLRNPRGYTVLHVAAMRKEPKLIISLLMKGANILDTTLDGRTALVIVKRLTKADDYKTSTEDGTPSLKGGLCIEVLEHEQKLEYLSPIEASLSLPVTPEELRMRLLYYENRVALARLLFPVETETVQGIAKLEETCEFTASSLEPDHHIGEKRTSLDLNMAPFQIHEKHLSRLRALCKTVELGKRYFKRCSLDHFMDTEDLNHLASVEEDTPEKRLQKKQRYMELQETLMKTFSEDKEECGKSSTPKPTSAVRSNRKLSHRRLKVDKRDFLKRPYGNGD
SA-induced cytoplasmic body/condensate (SINC) formation [1]: fail to form cytoplasmic condensates

B6: NPR3: Arabidopsis NPR1 paralog AtNPR3 (AT5G45110) (protein, UniProt Q8L746 1-586, looked up)
Regulatory protein NPR3: MATLTEPSSSLSFTSSHFSYGSIGSNHFSSSSASNPEVVSLTKLSSNLEQLLSNSDCDYSDAEIIVDGVPVGVHRCILAARSKFFQDLFKKEKKISKTEKPKYQLREMLPYGAVAHEAFLYFLSYIYTGRLKPFPLEVSTCVDPVCSHDCCRPAIDFVVQLMYASSVLQVPELVSSFQRRLCNFVEKTLVENVLPILMVAFNCKLTQLLDQCIERVARSDLYRFCIEKEVPPEVAEKIKQLRLISPQDEETSPKISEKLLERIGKILKALDSDDVELVKLLLTESDITLDQANGLHYSVVYSDPKVVAEILALDMGDVNYRNSRGYTVLHFAAMRREPSIIISLIDKGANASEFTSDGRSAVNILRRLTNPKDYHTKTAKGRESSKARLCIDILEREIRKNPMVLDTPMCSISMPEDLQMRLLYLEKRVGLAQLFFPTEAKVAMDIGNVEGTSEFTGLSPPSSGLTGNLSQVDLNETPHMQTQRLLTRMVALMKTVETGRRFFPYGSEVLDKYMAEYIDDDILDDFHFEKGSTHERRLKRMRYRELKDDVQKAYSKDKESKIARSCLSASSSPSSSSIRDDLHNTT
SA-induced cytoplasmic body/condensate (SINC) formation [1]: fail to form cytoplasmic condensates

B7: NPR4: Arabidopsis NPR1 paralog AtNPR4 (AT4G19660) (protein, UniProt Q5ICL9 1-574, looked up)
Regulatory protein NPR4: MAATAIEPSSSISFTSSHLSNPSPVVTTYHSAANLEELSSNLEQLLTNPDCDYTDAEIIIEEEANPVSVHRCVLAARSKFFLDLFKKDKDSSEKKPKYQMKDLLPYGNVGREAFLHFLSYIYTGRLKPFPIEVSTCVDSVCAHDSCKPAIDFAVELMYASFVFQIPDLVSSFQRKLRNYVEKSLVENVLPILLVAFHCDLTQLLDQCIERVARSDLDRFCIEKELPLEVLEKIKQLRVKSVNIPEVEDKSIERTGKVLKALDSDDVELVKLLLTESDITLDQANGLHYAVAYSDPKVVTQVLDLDMADVNFRNSRGYTVLHIAAMRREPTIIIPLIQKGANASDFTFDGRSAVNICRRLTRPKDYHTKTSRKEPSKYRLCIDILEREIRRNPLVSGDTPTCSHSMPEDLQMRLLYLEKRVGLAQLFFPAEANVAMDVANVEGTSECTGLLTPPPSNDTTENLGKVDLNETPYVQTKRMLTRMKALMKTVETGRRYFPSCYEVLDKYMDQYMDEEIPDMSYPEKGTVKERRQKRMRYNELKNDVKKAYSKDKVARSCLSSSSPASSLREALENPT
SA-induced cytoplasmic body/condensate (SINC) formation [1]: fail to form cytoplasmic condensates
